Source: PMC5316805, “Potent single-domain antibodies that arrest respiratory syncytial virus fusion protein in its prefusion state” (Nature Communications, 2017)

Tests used:
[1] = target: T1, prefusion-stabilized RSV F (DS-Cav1) with a C-terminal Strep-tag II and 6X HisTag (human respiratory syncytial virus A2 …, stabilised); assay: SPR; DS-Cav1 captured by its His tag on an NTA chip to ~530 RU each cycle (Biacore X100); VHH 2-fold dilutions 5 nM to 39.1 pM in HBS-P+; double-reference subtracted, 1:1 binding model (Scrubber); conditions: both partners purified
T1 construct: RSV fusion (F) protein, F2 subunit (N-terminal cut product of F0) of DS-Cav1; RSV fusion (F) protein, soluble part of the F1 subunit (C-terminal cut product of F0) of DS-Cav1; also called prefusion F; prefusion RSV F; source: purified; not shown: Strep-tag II, C-terminal, kept; His6, C-terminal, kept; copies: 3 + 3

[2] = target: RSV A2 F, full length, on RSV A2-infected cells and virions (human respiratory syncytial virus A2, UniProt P03420); assay: cell-based or functional assay

B1: F-VHH-L66 (VHH)
VHH: QVQLQESGGGLVQPGGSLRLSCAASGFTLDYYYIGWFRQAPGKEREGVSCISSSHGSTYYADSVKGRFTISRDNAKNTVYLQMNSLKPEDTAVYYCATVAVAHFRGCGVDGMDYWGKGTQVTVSS
notes: llama VHH; also in PDB 5TOK; Disulfide between Cys50 (CDR2) and Cys100c (CDR3), Kabat numbering; source: P. pastoris GS115, secreted, purified (ammonium sulfate precipitation, HisTrap HP, Superdex 75); not shown: His6, C-terminal, kept
Question: For B1, which Kd [1] is on record?
Answer: Its Kd is 0.154 nM.

Question: What about the koff [1] of the same binder?
Answer: Its koff is 5e-05 s⁻¹.

Question: And the kon [1]?
Answer: Its kon is 330000 M⁻¹ s⁻¹.

Question: What about the “plaque-reduction neutralisation of RSV A2 and RSV B49 on Vero cells, IC50” value [2] of the same binder?
Answer: Its value is < 0.1 nM.

B2: F-VHH-4 (VHH)
VHH: QVQLQESGGGLVQPGGSLRLSCAASGFTLDYYYIGWFRQAPGKEREAVSCISGSSGSTYYPDSVKGRFTISRDNAKNTVYLQMNSLKPEDTAVYYCATIRSSSWGGCVHYGMDYWGKGTQVTVSS
notes: llama VHH; also in PDB 5TP3 and 5TOJ; Disulfide between Cys50 (CDR2) and Cys100c (CDR3), Kabat numbering; the Pichia-made protein was used in the complex crystals; also called clone 4; source: P. pastoris GS115, secreted, purified (ammonium sulfate precipitation, HisTrap HP, Superdex 75); not shown: His6, C-terminal, kept
Question: Which Kd [1] does the source give for B2 here?
Answer: Its Kd is < 0.018 nM.

Question: What about the koff [1] of the same binder?
Answer: The koff was < 1e-05 s⁻¹.

Question: What about the kon [1] of the same binder?
Answer: Its kon is 570000 M⁻¹ s⁻¹.

Question: What about the “plaque-reduction neutralisation of RSV A2 and RSV B49 on Vero cells, IC50” value [2] of the same binder?
Answer: Its value is < 0.1 nM.
